“And” between values parts separate entries of the source, which are not always exact repeats. Equal values may be shown once.
Columns and labels:
Experiment in all cases: ITC
[1] = target: Alanine mutations of MRG15 L168 and W172 (human)
[2] = target: human MRG15 MRG domain (residues 155-323) (human, UniProt Q9UBU8-2 155-323)
human MRG15 MRG L287A = human MRG15 MRG L287A (human, UniProt Q9UBU8-2 155-323, alanine mutation of L287)
human MRG15 MRG L168A = human MRG15 MRG L168A (human, UniProt Q9UBU8-2 155-323, alanine mutation of L168)
human MRG15 MRG W172A = human MRG15 MRG W172A (human, UniProt Q9UBU8-2 155-323, alanine mutation of W172)
Chain of human MRG15 MRG W172A (Q9UBU8 194-362 W211A): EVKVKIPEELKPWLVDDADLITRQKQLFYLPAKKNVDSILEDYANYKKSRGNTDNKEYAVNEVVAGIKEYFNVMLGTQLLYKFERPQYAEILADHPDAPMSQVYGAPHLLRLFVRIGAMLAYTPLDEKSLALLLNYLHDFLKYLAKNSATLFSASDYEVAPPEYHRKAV

Chain of human MRG15 MRG domain (residues 155-323) (Q9UBU8 194-362): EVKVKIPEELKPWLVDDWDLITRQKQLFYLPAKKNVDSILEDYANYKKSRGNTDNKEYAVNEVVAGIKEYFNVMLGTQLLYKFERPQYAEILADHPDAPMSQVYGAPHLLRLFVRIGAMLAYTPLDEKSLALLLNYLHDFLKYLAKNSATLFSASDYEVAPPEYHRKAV
Chain of human MRG15 MRG L168A (Q9UBU8 194-362 L207A): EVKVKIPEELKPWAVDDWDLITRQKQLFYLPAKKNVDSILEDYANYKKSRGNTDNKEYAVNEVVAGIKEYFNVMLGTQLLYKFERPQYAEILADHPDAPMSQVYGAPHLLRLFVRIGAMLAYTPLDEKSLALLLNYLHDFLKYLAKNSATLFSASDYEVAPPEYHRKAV
Chain of human MRG15 MRG L287A (Q9UBU8 194-362 L326A): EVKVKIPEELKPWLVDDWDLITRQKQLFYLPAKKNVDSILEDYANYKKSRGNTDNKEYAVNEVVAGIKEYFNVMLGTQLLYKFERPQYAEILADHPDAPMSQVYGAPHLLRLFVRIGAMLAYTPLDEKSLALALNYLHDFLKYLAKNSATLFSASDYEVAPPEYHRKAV

Row | Kd [2] [nM] | fold decrease in binding affinity relative to wild-type [2] [fold] | Molecule | also measured
1 |  |  | human MRGBP MRG-binding domain (residues 69-119) (from UniProt Q9NV56 69-119) (domain or fragment) | fold reduction in binding affinity [1]: 7 fold and 8 fold
2 | ~60 |  | human MRGBP MRG-binding domain (residues 69-119) (domain or fragment, UniProt Q9NV56 69-119, looked up) GRQVPSKVIWDHLSTMYDMQALHESEILPFPNPERNFVLPEEIIQEVREGK | fold effect on binding (human MRG15 MRG L287A): > 2 fold; binding result (human MRG15 MRG L168A): binds; binding result (human MRG15 MRG W172A): binds
3 |  | ~13 | human MRGBP MBD I112A (domain or fragment, UniProt Q9NV56 69-119, looked up) GRQVPSKVIWDHLSTMYDMQALHESEILPFPNPERNFVLPEEIAQEVREGK | 
4 |  | ~3 | human MRGBP MBD M84A (domain or fragment, UniProt Q9NV56 69-119, looked up) GRQVPSKVIWDHLSTAYDMQALHESEILPFPNPERNFVLPEEIIQEVREGK | 
5 | ~20 |  | human PALB2 MBD (residues 579-629) (domain or fragment, UniProt Q86YC2 579-629, looked up) AYLSLDDDAFTAPFHRDGMLSLKQLLSFLSITDFQLPDEDFGPLKLEKVKS | 

Source: publication PMC4456287 (Structure (London, England : 1993), 2015)
